Consider three molecules from patent US20220073617A1 (Five Prime, published 2022).

The target in assay [1] is T1, monovalent hVISTA-ECD (human VISTA extracellular domain with His tail) (human, UniProt Q9H7M9 33-193).
T1 construct: analyte flowed over captured antibody; also called huVISTA-His
The experiment in a line: SPR, pH 6.0. How it is done: (§1) Binding of several preparations of each of the '029 progeny clones and of the parent '029 antibodies, formatted as IgG1.3 antibodies, to human VISTA at pH 6.0 and 7.4 was measured by Surface plasmon resonance (SPR). SPR analysis was performed to measure koff and KD binding affinity measurements for VISTA Abs at acidic and neutral pHs using a Biacore® T100 instrument (GE Healthcare). Protein A (ThermoFisher Scientific catalog #21181) was diluted to 20 ug/ml in 10 mM sodium acetate pH 4.5 and immobilized onto flow cells of a CM5 biosensor following the manufacturer's amine coupling protocol (GE Healthcare), targeting 2,000 RU immobilization density of Protein A per flow cell. SPR experiments were conducted at 37° C. using PBST (137 mM sodium chloride, 2.7 mM potassium chloride, 10 mM phosphate buffer, 0.05% Tween® 20) running buffer at pH 7.4 and 6.0. Antibodies were diluted to 25 nM in PBST pH 7.4, and were captured across active biosensor flow cells at 5 ul/min for 60 seconds. […] Two 15 second injections of 10 mM glycine pH 1.5 were used to regenerate the Protein A capture surface between assay cycles. Rate constants ka (kₒₙ) and kd (koff) were derived from reference flow cell and 0 nM blank-subtracted sensorgrams, and were fit to a 1:1 binding model in Biacore® T200 Evaluation Software v.2.0. The affinity constant, KD was calculated as the ratio of rate constants koff/kₒₙ for each VISTA antibody.
(§2) This initial campaign led to pH-independent VISTA.4 variants with near equivalent koff at pH 6 and pH 7. In order to obtain an antibody that binds to hVISTA with high affinity at pH 6.0 and low affinity at pH 7.0, a new library based on consensus sequence of pH-independent VISTA.4 variants was designed and constructed, with amino acid residues in the loops substituted for charge amino acid residues (see Example 9), and screened via yeast surface display (see Example 9). The library was analyzed as previously described (see Example 9) and selected variants were reformatted as IgG1.3 for further analysis (Tables 26 and 27). SPR analysis was conducted on these variants using the conditions previously described in Example 9.

The target of assay [2] is T1, monovalent hVISTA-ECD (human VISTA …). The experiment in a line: SPR, pH 6.0. How it is done:
as §1
The source holds these as a separate data set.

The target is the same in assay [3]. The experiment in a line: SPR, pH 7.4. As to the method:
as §1, §2
On the technique in general: In SPR one partner is held on a chip, and binding of the other changes the refractive index at the surface.

Assay [4] shares this target. The experiment in a line: SPR, pH 7.4. As to the method: as §1
This is another data set of the same source.

The target is the same in assay [5]. Nature of the assay: SPR. As to the method: as §1
The target is the same in assay [6]. Nature of the assay: SPR. The source holds these as a separate data set.
Assay [7] has the same target. Nature of the assay: SPR, pH 6.0. This is another data set of the same source.
The target is the same in assay [8]. The experiment in a line: SPR, pH 7.4. This is another data set of the same source.

T1 sequence (Q9H7M9 other isoform, or with tags, fused parts or gaps limits assumed): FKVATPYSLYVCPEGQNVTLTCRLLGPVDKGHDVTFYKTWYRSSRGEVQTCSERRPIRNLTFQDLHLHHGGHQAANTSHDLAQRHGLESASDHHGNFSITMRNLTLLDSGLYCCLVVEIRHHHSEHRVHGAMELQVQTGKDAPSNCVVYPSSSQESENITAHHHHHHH

B1: P1-064391 (41F11_HC_Mutant: D31E/Y50W/S55E/Y100E 41F11_LC_Mutant: V29D/A64G/R91T) (antibody, V domains shown)
VH: QVQLVESGGGLVKPGGSLRLSCAASGFTFSEYYMSWIRQAPGKGLEWVSWISNSGEPIYYADSVKGRFTISRDNAKNSLYLQMNSLRAEDTAVYYCARDLPGWEFDLWGRGTLVTVSS
VL: EIVLTQSPATLSLSPGERATLSCRASQSDSSYLAWYQQKPGQAPRLLIYDASNRATGIPARFSGSGSGTDFTLTISSLEPEDFAVYYCQQTNNWPRTFGQGTKVEIK
notes: Kabat positions; also called P1-064391-1
As a reminder, the Kd is the equilibrium constant for the complex coming apart. Low values mean higher affinity, high ones lower affinity. As usually defined, the koff is the first-order rate constant of dissociation. Read a high koff as a short-lived complex. A word on the kon: it is the second-order rate constant of association. In assay [1], B1 had a Kd of 10 nM, a koff of 0.027 s⁻¹ and an on-rate constant (kon) of 2.7e+06 M⁻¹ s⁻¹. Also, in assay [2], the affinity, expressed as Kd, was 6.4 nM; the “kd improvement vs parent” value came out at 3.3 fold; the koff was 0.033 s⁻¹; the on-rate constant (kon) came to 5.1e+06 M⁻¹ s⁻¹. Besides, in assay [3], the Kd worked out at 31 nM, the dissociation rate constant (koff) came to 0.019 s⁻¹ and the kon worked out at 630000 M⁻¹ s⁻¹. In assay [4], the Kd amounted to 37 nM, the “kd improvement vs parent” value amounted to 0.1 fold, the koff came to 0.016 s⁻¹ and the kon was determined as 430000 M⁻¹ s⁻¹. Besides, in assay [5], the “pH 6.0/7.4 KD” value was determined as 0.2 and the “pH 6.0/7.4 kd” value was determined as 2.1.

B2: P1-064392 (41F11_HC_Mutant: D31E/Y50W/S55E/Y100E 41F11_LC_Mutant: V29D/A64G/Q89E/R91T) (antibody, V domains shown)
VH: QVQLVESGGGLVKPGGSLRLSCAASGFTFSEYYMSWIRQAPGKGLEWVSWISNSGEPIYYADSVKGRFTISRDNAKNSLYLQMNSLRAEDTAVYYCARDLPGWEFDLWGRGTLVTVSS
VL: EIVLTQSPATLSLSPGERATLSCRASQSDSSYLAWYQQKPGQAPRLLIYDASNRATGIPARFSGSGSGTDFTLTISSLEPEDFAVYYCEQTNNWPRTFGQGTKVEIK
notes: Kabat positions; also called P1-064392-1
Take B2: in assay [1], binding was characterised by a dissociation constant (Kd) of 1.6 nM, the dissociation rate constant (koff) turned out to be 0.012 s⁻¹ and the kon amounted to 7.7e+06 M⁻¹ s⁻¹. In addition, in assay [2], the dissociation constant (Kd) is 1.8 nM, the “kd improvement vs parent” value was 12.4 fold, the koff turned out to be 0.0086 s⁻¹ and the kon was 4.8e+06 M⁻¹ s⁻¹. In assay [3], this molecule showed a Kd of 11 nM, an off-rate (koff) of 0.0078 s⁻¹ and a kon of 770000 M⁻¹ s⁻¹. In addition, in assay [4], the Kd stood at 15 nM, the “kd improvement vs parent” value stood at 0.1 fold, the koff amounted to 0.007 s⁻¹ and the on-rate constant (kon) came to 470000 M⁻¹ s⁻¹. Also, in assay [5], the “pH 6.0/7.4 KD” value amounted to 0.1 and the “pH 6.0/7.4 kd” value was found to be 1.2.

B3: P1-064510 (41F11_Vk_A25E/V29D/A64G/R91T) (antibody, V domains shown)
VH: QVQLVESGGGLVKPGGSLRLSCAASGFTFSDYYMSWIRQAPGKGLEWVSYISNSGSPIYYADSVKGRFTISRDNAKNSLYLQMNSLRAEDTAVYYCARDLPGWYFDLWGRGTLVTVSS
VL: EIVLTQSPATLSLSPGERATLSCRESQSDSSYLAWYQQKPGQAPRLLIYDASNRATGIPARFSGSGSGTDFTLTISSLEPEDFAVYYCQQTNNWPRTFGQGTKVEIK
notes: also called P1-064510-1
Regarding B3, the dissociation constant Kd in assay [1] was 4.8 nM; in assay [2] it was 2.6 nM; in assay [3] it was 3.4 nM; in assay [4] it was 4.1 nM; in assay [7] it was 2.51 nM; in assay [8], 84.8 nM. Besides, the off-rate (koff) in assay [1] came out at 0.0036 s⁻¹; in assay [2] it was 0.0031 s⁻¹; in assay [3], 0.00039 s⁻¹; in assay [4], 0.00064 s⁻¹; in assay [7], 0.00312 s⁻¹; in assay [8], 0.000527 s⁻¹. In addition, the association rate constant (kon) in assay [1] was determined as 750000 M⁻¹ s⁻¹; in assay [2], 1.2e+06 M⁻¹ s⁻¹; in assay [3] it was 110000 M⁻¹ s⁻¹; in assay [4], 150000 M⁻¹ s⁻¹; in assay [7], 1.24e+06 M⁻¹ s⁻¹; in assay [8] it was 6220 M⁻¹ s⁻¹. Moreover, the “kd improvement vs parent” value in assay [2] amounted to 35 fold; in assay [4] it was 1.4 fold. In assay [6], the “KD ratio (pH 7.4/pH 6.0)” value was 33.8. Further, the “pH 6.0/7.4 KD” value in assay [5] is 0.6. For the same molecule, the “pH 6.0/7.4 kd” value in assay [5] is 4.8.
